This passage reports Kd results from paper PMC12464775, “Selective and Potent Peptide Binders of RNF43 for Wnt Signaling Inhibition” (ACS Central Science, 2025).

This test deals with T1, extracellular domain (ECD) of the human RNF43 protein, biotinylated, Q68DV7.
T1 chain: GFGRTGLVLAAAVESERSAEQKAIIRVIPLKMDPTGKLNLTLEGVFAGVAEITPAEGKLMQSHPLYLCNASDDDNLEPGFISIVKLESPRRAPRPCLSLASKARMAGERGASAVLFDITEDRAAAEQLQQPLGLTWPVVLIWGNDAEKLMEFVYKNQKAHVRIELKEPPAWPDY
Kind of test: SPR. The note with it: chain shown with the change;; parent: 1.1 ± 0.07 nM.

Usually Kd stands for a measure of binding affinity in units of concentration.

EQCTSTQDLCHDASHVCCWPLDCRWAVKYQWFWDCIG [GUR-1.6.12.2 Y13A]: the Kd was found to be 36 nM.
